Patent CN103012589A (SHANGHAI SERUM BIO TECHNOLOGY CO LTD; INST BIOENGINEERING …, dated 2013)

T1: 重组人VEGF165 (human, UniProt P15692-4 27-191)
T1 construct: also called VEGF双体; 人血管内皮细胞生长因子
T1 sequence: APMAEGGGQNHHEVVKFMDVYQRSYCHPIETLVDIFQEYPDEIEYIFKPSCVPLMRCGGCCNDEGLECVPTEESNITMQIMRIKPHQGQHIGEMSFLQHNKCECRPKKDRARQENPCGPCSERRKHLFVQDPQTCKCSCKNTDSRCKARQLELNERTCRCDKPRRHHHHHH


Target: T1, 重组人VEGF165
Experiment: Biacore SPR, VEGF coupled on CM5 chip, whole antibody as analyte, 1:1 Langmuir fit

Kd	koff	kon	Binder
5.27 nM	0.00149 s⁻¹	283000 M⁻¹ s⁻¹	VA6L-K90D_D92V (antibody, V domains shown, also called VA6-3) VH: not shown VL: SYELTQPPSVSVAPGQTARITCSGDALGDKYASWYQQKPGQAPVLVIYEDSKRPSGIPERFSGSNSGNTATLTISGTQAEDEADYYCQVDSVNYGYVFGGGTKLTVLG
12.7 nM	0.000445 s⁻¹	35000 M⁻¹ s⁻¹	VA6全抗体 (antibody, V domains shown, Whole antibody from vectors pABL (lambda) and pABG1 (human IgG1), HEK293T transient expression) VH: not shown VL: SYELTQPPSVSVAPGQTARITCSGDALGDKYASWYQQKPGQAPVLVIYEDSKRPSGIPERFSGSNSGNTATLTISGTQAEDEADYYCQVKSDNYGYVFGGGTKLTVLG
1.8 nM	0.00096 s⁻¹	550000 M⁻¹ s⁻¹	VA6-57 (antibody, IgG1, V domains shown, Whole antibody (IgG1, lambda); built further on VA6-3) VH: not shown VL: SYELTQPPSVSVAPGQTARITCSGDALGDKYASWYQQKPGQAPVLVIYEDSKRPSGIPERFSGSNSGNTATLTISGTQAEDEADYYCQVDSVNYGYVFGGGTKLTVLG
